Measurements from patent US20250136695A1 (PERSONGEN BIOTHERAPEUTICS SUZHOU, published 2025).

What was measured:
[1] = target: T1, PDL1 expressed on recombinant CHO cells (CHO-K1/PDL1; aAPC CHO-PDL1) (UniProt Q9NZQ7 19-290, limits assumed); assay: cell-based or functional assay
[2] = target: T1, PDL1 expressed on recombinant CHO cells …; assay: cell-based or functional assay; remark: listed apart in the source
[3] = target: T1, PDL1 expressed on recombinant CHO cells …; assay: cell-based or functional assay; remark: listed apart in the source
PDL1-His = target: T2, PDL1-His (UniProt Q9NZQ7 19-238, limits assumed); assay: BLI (OCTET R2), Fc-tagged antibody on protein A probes, PDL1-His as mobile phase
T2 construct: not shown: His tag
T2 sequence (Q9NZQ7 19-238 limits assumed): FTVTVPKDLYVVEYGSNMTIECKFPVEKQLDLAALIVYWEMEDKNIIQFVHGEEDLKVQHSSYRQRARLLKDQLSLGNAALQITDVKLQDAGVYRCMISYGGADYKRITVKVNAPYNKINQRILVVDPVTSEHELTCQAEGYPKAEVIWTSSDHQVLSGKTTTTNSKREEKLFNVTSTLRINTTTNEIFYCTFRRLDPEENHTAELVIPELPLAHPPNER

T1 sequence (Q9NZQ7 19-290 limits assumed): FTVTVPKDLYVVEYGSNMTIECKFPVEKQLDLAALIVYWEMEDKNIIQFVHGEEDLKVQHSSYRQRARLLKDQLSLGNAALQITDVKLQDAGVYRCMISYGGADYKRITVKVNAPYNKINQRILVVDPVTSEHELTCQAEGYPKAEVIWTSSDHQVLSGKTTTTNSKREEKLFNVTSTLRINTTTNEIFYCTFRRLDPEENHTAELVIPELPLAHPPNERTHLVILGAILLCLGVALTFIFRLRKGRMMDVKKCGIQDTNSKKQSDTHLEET

Row | Binder | EC50 of PD-1/PDL1 blocking against Nivolumab ([…] µg/mL), same reporter assay [1] [µg/mL] | EC50 of the PD1/PDL1 Block Assay (luciferase fold of induction, Jurkat-PD1-NFAT-Luc + aAPC CHO-PDL1); printed as 03-17-A06; the table gives no unit, the axis is in µg/mL [2] [µg/mL] | EC50 of the PD1/PDL1 Block Assay (luciferase fold of induction, Jurkat-PD1-NFAT-Luc + aAPC CHO-PDL1); printed as 03-23-G3; the table gives no unit, the axis is in µg/mL [2] [µg/mL] | EC50 of the PD1/PDL1 Block Assay (luciferase fold of induction, Jurkat-PD-1-NFAT-Luc + aAPC CHO-PDL1) [3] [µg/mL] | Kd (PDL1-His) [nM] | koff (PDL1-His) [s⁻¹] | kon (PDL1-His) [M⁻¹ s⁻¹] | EC50 of the PD1/PDL1 Block Assay (luciferase fold of induction, Jurkat-PD1-NFAT-Luc + aAPC CHO-PDL1); printed as 03-29-H9; the table gives no unit, the axis is in µg/mL [2] [µg/mL]
1 | 17-A06 (VHH fused to human IgG1 Fc) (Fc fusion, not shown: a dimerising Fc or GST) MAQVKLEESGGGLVQAGGSLRLSCVASGRSFITYAVGWFRQAPGKEREFVASINWSGAMTYYTDSVNGRFAISRDNAKNTVYLQMNNLKLEDTAVYYCASTISAVTPTNGYQNWGQGTQVTVSS | > 0.322 | 1.96 |  |  |  |  |  | 
2 | 17-A06-G4S-29-H9 (Fc fusion, also called bivalent antibody 17-A06-G4S-29-H9; bivalent PDL1 antibody; not shown: Fc tag ('Fc-tagged')) MAQVKLEESGGGLVQAGGSLRLSCVASGRSFITYAVGWFRQAPGKEREFVASINWSGAMTYYTDSVNGRFAISRDNAKNTVYLQMNNLKLEDTAVYYCASTISAVTPTNGYQNWGQGTQVTVSSGGGGSRLQLVESGGGLVQAGGSLRLSCAASGFTFSTYAMSWYRGVPEKERELVAFISSDGGGTTYRDSVKGRFTISRDNGKNTVYLQMNSLKPEDTGVYYCARGLAQIWGQGTQVTVSS |  |  |  | 1.35 | 2.73 | 0.00048 | 176000 | 

Continued, values first:

Row | EC50 of PD-1/PDL1 blocking against Nivolumab ([…] µg/mL), same reporter assay [1] [µg/mL] | EC50 of the PD1/PDL1 Block Assay (luciferase fold of induction, Jurkat-PD1-NFAT-Luc + aAPC CHO-PDL1); printed as 03-17-A06; the table gives no unit, the axis is in µg/mL [2] [µg/mL] | EC50 of the PD1/PDL1 Block Assay (luciferase fold of induction, Jurkat-PD1-NFAT-Luc + aAPC CHO-PDL1); printed as 03-23-G3; the table gives no unit, the axis is in µg/mL [2] [µg/mL] | EC50 of the PD1/PDL1 Block Assay (luciferase fold of induction, Jurkat-PD-1-NFAT-Luc + aAPC CHO-PDL1) [3] [µg/mL] | Kd (PDL1-His) [nM] | koff (PDL1-His) [s⁻¹] | kon (PDL1-His) [M⁻¹ s⁻¹] | EC50 of the PD1/PDL1 Block Assay (luciferase fold of induction, Jurkat-PD1-NFAT-Luc + aAPC CHO-PDL1); printed as 03-29-H9; the table gives no unit, the axis is in µg/mL [2] [µg/mL] | Binder
3 | > 0.322 |  | 3.45 |  |  |  |  |  | 23-G3 (VHH fused to human IgG1 Fc) (Fc fusion, not shown: a dimerising Fc or GST) MAAVQLVESGGGLVQAGGSLRLSCVASGRSFITYAVGWFRQAPGKEREFVASVNWSGAMTYYADAVNGRFTISRDNAKNTVYLQMNNLKLEDTAVYYCAATISAVTPTNGYQNWGQGTQVTVSS
4 |  |  |  | 2.06 | 4.2 | 0.000649 | 155000 |  | 17-A06-G4S-23-G3 (Fc fusion, also called bivalent antibody 17-A06-G4S-23-G3; bivalent PDL1 antibody; not shown: Fc tag ('Fc-tagged')) MAQVKLEESGGGLVQAGGSLRLSCVASGRSFITYAVGWFRQAPGKEREFVASINWSGAMTYYTDSVNGRFAISRDNAKNTVYLQMNNLKLEDTAVYYCASTISAVTPTNGYQNWGQGTQVTVSSGGGGSMAAVQLVESGGGLVQAGGSLRLSCVASGRSFITYAVGWFRQAPGKEREFVASVNWSGAMTYYADAVNGRFTISRDNAKNTVYLQMNNLKLEDTAVYYCAATISAVTPTNGYQNWGQGTQVTVSS
5 |  |  |  |  | 1.92 | 0.000455 | 238000 |  | 23-G3-G4S-29-H9 (Fc fusion, also called bivalent antibody 23-G3-G4S-29-H9; bivalent PDL1 antibody; not shown: Fc tag ('Fc-tagged')) MAAVQLVESGGGLVQAGGSLRLSCVASGRSFITYAVGWFRQAPGKEREFVASVNWSGAMTYYADAVNGRFTISRDNAKNTVYLQMNNLKLEDTAVYYCAATISAVTPTNGYQNWGQGTQVTVSSGGGGSRLQLVESGGGLVQAGGSLRLSCAASGFTFSTYAMSWYRGVPEKERELVAFISSDGGGTTYRDSVKGRFTISRDNGKNTVYLQMNSLKPEDTGVYYCARGLAQIWGQGTQVTVSS
6 | > 0.322 |  |  |  |  |  |  | 1.44 | 29-H9 (VHH fused to human IgG1 Fc) (Fc fusion, not shown: a dimerising Fc or GST) RLQLVESGGGLVQAGGSLRLSCAASGFTFSTYAMSWYRGVPEKERELVAFISSDGGGTTYRDSVKGRFTISRDNGKNTVYLQMNSLKPEDTGVYYCARGLAQIWGQGTQVTVSS
